Data on 5 substances can be found in US6528283.

Test in all cases: cell-based or functional assay
Settings in all cases: scale: β-galactosidase activity units

Test [1] addresses GAL4 DNA-binding domain alone (empty pAS2-1 vector, negative control bait) (UniProt P04386).
Test [2] deals with hD52 bait (GAL4 DNA-binding domain fused to full-length hD52, pAS2-1hD52) (human).
The target in test [3] is hD53 bait (GAL4 DNA-binding domain fused to full-length hD53, pAS2-1hD53) (human).
Test [4] has as its target hD54+ins2 bait (GAL4 DNA-binding domain fused to hD54+ins2, pAS2-1hD54+ins2) (human).
In test [5] the target is hD54-ins2 bait (GAL4 DNA-binding domain fused to hD54-ins2, pAS2-1hD54-ins2) (human).
In test [6] the target is mD52 bait (GAL4 DNA-binding domain fused to full-length mD52, pAS2-1mD52) (mouse).
For test [7] the target is unchanged. This is another data set of the same source.
For test [8], the target named is mD52(1-95) bait (GAL4 DNA-binding domain fused to the N-terminal half of mD52, pAS2-1mD52(1-95)) (mouse).
Test [9] has as its target mD52(95-185) bait (GAL4 DNA-binding domain fused to the C-terminal half of mD52, pAS2-1mD52(95-185)) (mouse).

Turning to “hD54-ins2 interactor (GAL4 activation domain fused to hD54-ins2, pACT2hD54-ins2) (from UniProt P04386 768-881)”, the β-galactosidase activity, yeast two-hybrid (Y190) in test [1] turned out to be 0.45; in test [2], 1.15; in [3], 2.26; in [4], 2.03; in [5], 1.07; in [6] it was 0.44.

With “mD52(1-163) interactor (GAL4 activation domain fused to mD52 amino acids 1-163, pACT2mD52(1-163)) (from UniProt P04386 768-881)”, the β-galactosidase activity, yeast two-hybrid (Y190) in [1] is 0; in test [2] it was 1.3; in [3] it was 5.71; in [4], 4.25; in test [5], 2.37; in [6] it was 0.42.

With “hD52 interactor (GAL4 activation domain fused to hD52, pAD-GAL4hD52, library clone starting at nt 46) (from UniProt P04386 761-881)”, the β-galactosidase activity, yeast two-hybrid (Y190) in test [1] was found to be 0.17; in [2] it was 0.87; in test [3], 3; in test [4], 0.85; in [5] it was 1.74; in [6] it was 0.16.

With “hD54+ins2 interactor (GAL4 activation domain fused to hD54+ins2, pACT2hD54+ins2) (from UniProt P04386 768-881)”, the β-galactosidase activity, yeast two-hybrid (Y190) in test [1] was found to be 0; in test [2], 2.03; in [3] it was 6.01; in test [4], 5.98; in test [5], 3.51; in test [6], 0.48.

Consider “GAL4 activation domain alone (empty pACT2 vector, negative control interactor) (from UniProt P04386 768-881)”, for which the β-galactosidase activity, yeast two-hybrid (Y190) in test [1] is 0; in test [2] it was 0; in [3], 0.14; in test [4], 0; in test [5], 0; in [6], 0. Moreover, the β-galactosidase activity, yeast two-hybrid (Y190) in test [7] is 0.34; in test [8], 0.36; in test [9], 0.23.
